Positions count from the first letter of the chain named. Names and notes keep the numbering of the source.

Series [1] concerns the molecule itself. The series can be described thus: cryo-EM structure; wild-type LONP1 2.5 mg/ml in 50 mM Tris pH 8, 75 mM KCl, 10 mM MgCl2, 1 mM TCEP, 1 mM ATPγS; substrate-free (~3.4 Å) and substrate-bound (~3.2 Å) conformations from one sample; LONP1 with itself.
Series [2] concerns the molecule itself. The series can be described thus: cryo-EM structure; Walker B (E591A) LONP1 2.5 mg/ml in 50 mM Tris pH 8, 75 mM KCl, 10 mM MgCl2, 1 mM TCEP, 1 mM ATP; ~4.8 Å; LONP1 with itself.
Series [3] concerns the molecule itself. The series can be described thus: cryo-EM structure; LONP1 2.5 mg/ml in 50 mM Tris pH 8, 75 mM KCl, 10 mM MgCl2, 1 mM TCEP, 1 mM ATPγS with 10-fold molar excess bortezomib; ~3.2 Å; LONP1 with itself.

B1: human LONP1 (mature, lacking its N-terminal mitochondrial targeting sequence), wild type (enzyme, UniProt P36776 115-959, looked up)
chain: MTIPDVFPHLPLIAITRNPVFPRFIKIIEVKNKKLVELLRRKVRLAQPYVGVFLKRDDSNESDVVESLDEIYHTGTFAQIHEMQDLGDKLRMIVMGHRRVHISRQLEVEPEEPEAENKHKPRRKSKRGKKEAEDELSARHPAELAMEPTPELPAEVLMVEVENVVHEDFQVTEEVKALTAEIVKTIRDIIALNPLYRESVLQMMQAGQRVVDNPIYLSDMGAALTGAESHELQDVLEETNIPKRLYKALSLLKKEFELSKLQQRLGREVEEKIKQTHRKYLLQEQLKIIKKELGLEKDDKDAIEEKFRERLKELVVPKHVMDVVDEELSKLGLLDNHSSEFNVTRNYLDWLTSIPWGKYSNENLDLARAQAVLEEDHYGMEDVKKRILEFIAVSQLRGSTQGKILCFYGPPGVGKTSIARSIARALNREYFRFSVGGMTDVAEIKGHRRTYVGAMPGKIIQCLKKTKTENPLILIDEVDKIGRGYQGDPSSALLELLDPEQNANFLDHYLDVPVDLSKVLFICTANVTDTIPEPLRDRMEMINVSGYVAQEKLAIAERYLVPQARALCGLDESKAKLSSDVLTLLIKQYCRESGVRNLQKQVEKVLRKSAYKIVSGEAESVEVTPENLQDFVGKPVFTVERMYDVTPPGVVMGLAWTAMGGSTLFVETSLRRPQDKDAKGDKDGSLEVTGQLGEVMKESARIAYTFARAFLMQHAPANDYLVTSHIHLHVPEGATPKDGPSAGCTIVTALLSLAMGRPVRQNLAMTGEVSLTGKILPVGGIKEKTIAAKRAGVTCIVLPAENKKDFYDLAAFITEGLEVHFVEHYREIFDIAFPDEQAEALAVER
notes: human LONP1, mature mitochondrial-matrix form with methionine 115 as its first residue; residues ~420-947 resolved in the cryo-EM maps; pET20b-His6-LONP1; no removal of the His6 tag is described; Incubated with ATPγS for cryo-EM; also called His6-LONP1; WT LONP1; source: E. coli Rosetta 2(DE3)pLysS, purified (TALON cobalt resin, Superose 6 size exclusion)
B1: the stoichiometry N (in general, a count of units in the complex or per binding partner) in series [1] came out at 6.

B2: Walker B LONP1 mutant (E591A) (enzyme, human, UniProt P36776 115-959, looked up)
chain: B1 chain with E477A
notes: human LONP1, mature form with methionine 115 as its first residue, with the Walker B mutation E591 to A591; Made by QuikChange from pET20b-His6-LONP1, expressed and purified as the wild type; Structure determined with ATP; also called WalkerB mutant LONP1; source: E. coli Rosetta 2(DE3)pLysS, purified (TALON cobalt resin, Superose 6 size exclusion)
For the protein B2, in series [2], the binding result is “binds”.

B3: LONP1^Bz: human LONP1 with bortezomib covalently attached to the catalytic serine (enzyme, UniProt P36776 115-959, looked up)
chain: B1 chain
modifications: bortezomib covalently attached to S855
notes: human LONP1, mature form with methionine 115 as its first residue; with ATPγS
With B3, in series [3], the “stoichiometry N” value was determined as 6.

The values are drawn from publication PMC8163871, “Structures of the human LONP1 protease reveal regulatory steps involved in protease activation” (Nature Communications, 2021).
